Patent publication US4587340A, “Biopterin analogs” (Burroughs Wellcome Co., priority 1984, dated 1986)

Legend:
[1] = substrate: COCC1CNc2nc(N)[nH]c(=O)c2N1; assay: Dihydropteridine reductase assay; type: biochemical; conditions: other: quinonoid dihydro form of the pterin
Protocol: Dihydropteridine reductase was assayed by the method of Craine, et al., (J. Biol. Chem., 247, 6082 (1972)).

[2] = substrate: C[C@H](O)[C@H](O)[C@H]1CNc2nc(N)[nH]c(=O)c2N1; assay: purified protein, by the assay type
[3] = substrate: COCC1CNc2nc(N)[nH]c(=O)c2N1; assay: Phenylalanine hydroxylase cofactor assay; type: biochemical; conditions: other: rat liver enzyme
[4] = substrate: C[C@H](O)[C@H](O)[C@H]1CNc2nc(N)[nH]c(=O)c2N1; assay: cells, lysate or membranes named
[5] = substrate: COCC1CNc2nc(N)[nH]c(=O)c2N1; assay: Tryptophan hydroxylase cofactor assay; type: biochemical
Protocol: Tryptophan hydroxylase was assayed according to a modification of the method of Renson J., et al (Biochem. Biophys. Acta 25: 504 (1966)).

B1: Dihydropteridine reductase (Homo sapiens) (protein)
chain: MAAAAAAGEARRVLVYGGRGALGSRCVQAFRARNWWVASVDVVENEEASASIIVKMTDSFTEQADQVTAEVGKLLGEEKVDAILCVAGGWAGGNAKSKSLFKNCDLMWKQSIWTSTISSHLATKHLKEGGLLTLAGAKAALDGTPGMIGYGMAKGAVHQLCQSLAGKNSGMPPGAAAIAVLPVTLDTPMNRKSMPEADFSSWTPLEFLVETFHDWITGKNRPSSGSLIQVVTTEGRTELTPAYF
- Km [1]: 7 µM
- Km ([2]; other: quinonoid dihydro form of the pterin): 1.8 µM

B2: Phenylalanine hydroxylase (Rattus norvegicus) (protein)
chain: MAAVVLENGVLSRKLSDFGQETSYIEDNSNQNGAISLIFSLKEEVGALAKVLRLFEENDINLTHIESRPSRLNKDEYEFFTYLDKRTKPVLGSIIKSLRNDIGATVHELSRDKEKNTVPWFPRTIQELDRFANQILSYGAELDADHPGFKDPVYRARRKQFADIAYNYRHGQPIPRVEYTEEEKQTWGTVFRTLKALYKTHACYEHNHIFPLLEKYCGFREDNIPQLEDVSQFLQTCTGFRLRPVAGLLSSRDFLGGLAFRVFHCTQYIRHGSKPMYTPEPDICHELLGHVPLFSDRSFAQFSQEIGLASLGAPDEYIEKLATIYWFTVEFGLCKEGDSIKAYGAGLLSSFGELQYCLSDKPKLLPLELEKTACQEYSVTEFQPLYYVAESFSDAKEKVRTFAATIPRPFSVRYDPYTQRVEVLDNTQQLKILADSINSEVGILCNALQKIKS
notes: Phenylalanine hydroxylase was prepared from rat liver using hydrophobic chromatography; from tissue; host or cells: rat liver
- Km [3]: 12.9 µM
- Km ([2]; other: rat liver enzyme): 7.9 µM

B3: Tryptophan hydroxylase (Rattus norvegicus) (protein)
chain: MQPAMMMFSSKYWARRGLSLDSAVPEEHQILGGLTQNKATASKSEDKRSGKDTSESSKTAVVFSLKNEVGGLVRALRLFQEKHVNMLHIESRRSRRRSSEVEIFVDCECGKTEFNELIQLLKFQTTIVTLNPPDNIWTEEEELEDVPWFPRKISELDRCSHRVLMYGTELDADHPGFKDNVYRQRRKYFVDVAMGYKYGQPIPRVEYTEEETKTWGVVFRELSKLYPTHACREYLKNFPLLTKYCGYREDNVPQLEDVSMFLKERSGFTVRPVAGYLSPRDFLAGLAYRVFHCTQYVRHGSDPLYTPEPDTCHELLGHVPLLADPKFAQFSQEIGLASLGASDEDVQKLATCYFFTIEFGLCKQEGQLRAYGAGLLSSIGELKHALSDKACVKAFDPKTTCLQECLITTFQDAYFVSESFEEAKEKMRDFAKSITRPFSVYFNPYTQSIEILKDTRSIENVVQDLRSDLNTVCDALNKMNQYLGI
notes: The preparation of tryptophan hydroxylase was a crude 30,000xg supernatant; from tissue
- Km [4]: 82 µM
- Km [5]: 103 µM
